# Where a chain is given by its changes, count along the chain named.
# B1: P3-C7 L2H1 (antibody, human IgG1, kappa, V domains shown)
# VH: EVQLVQSGAEVKKPGASVKVSCKASGYTFTDHYIHWVRQAPGQGLEWMGVINPYNDGATYNQKFKGRVTMTVDKSTSTVYMELSSLRSEDTAVYYCARPPRAYGNYAGYWGQGTTVTVSS
# VL: DVVMTQTPLSLPVTPGEPASISCRSSQSLVHSNGNTYLHWYLQKPGQSPQLLIYKVSNRFSGVPDRFSGSGSRTDFTLKISRVEAEDVGVYYCSQSTHVPYTFGGGTKVEIKR
# notes: hP3-C7 H1 + L2
# B2: P3-C7 CHI (antibody, human IgG1, kappa, V domains shown)
# VH: EVQLQQSGPVLLKPGASVKMSCKASGYTFTDHYIHWVKLSHGKSLEWIGVINPYNDGATYNQKFKGKATLTVDKSSSTAYMELNSLTSEDSAVYYCARPPRAYGNYAGYWGQGTTLTVSS
# VL: B1 VL with T14S, P15L, E17D, P18Q, Q50K, S68I, V88L, Y92F, K108R, V109L
# notes: chimeric; also called P3-C7 CH1
# B3: P3-C7 L3H1 (antibody, human IgG1, kappa, V domains shown)
# VH: B1 VH
# VL: B1 VL with N33Q
# notes: hP3-C7 H1 + L3
# B4: P3-C7 L5H1 (antibody, human IgG1, kappa, V domains shown)
# VH: B1 VH
# VL: B1 VL with N33T
# notes: hP3-C7 H1 + L5
# B5: P3-C7 L4H1 (antibody, human IgG1, kappa, V domains shown)
# VH: B1 VH
# VL: B1 VL with N33S
# notes: hP3-C7 H1 + L4
# B6: P3-C7 L1H1 (antibody, human IgG1, kappa, V domains shown)
# VH: B1 VH
# VL: B1 VL with V2I, R73G
# notes: hP3-C7 H1 + L1
# B7: P2-B9 CHI (antibody, human IgG1, kappa, V domains shown)
# VH: QVQLQQPGAELVKPGASVKLSCKASGYTFSSYWMHWVKQRPGQGLEWIGMIHPKSDSVNNNEKFKNKATLTVDKSSSTVYLQLSSLTSEDSAVYSCARGGDSGYSMDYWGQGTSVTVSS
# VL: DIVLTQSPASLAVSLGQKATISCKASKKVTIFGSISALHWYQQKPGQPPKLIYNGAKLESGVSARFSDSGSQNRSPFGNQLSFTLTIDPVEADDAATYYCLQNKEVPYTFGGGTKLEIKR
# notes: chimeric
# B8: M81 CHI (antibody, human IgG1, kappa, V domains shown)
# VH: EFQLQQSGPELVKPGASVKISCKASGYSFTDHNMNWVKQSNGKSLEWIGVMNPKFGTINYNQKFKDKATLTVDQSSSTAYMQLNSLTSEDSAVYYCVRDDYPNYFDYWGQGTTLTVSS
# VL: QIVLTQSPAIMSASPGEKVTISCSASSSVNYMYWYQQKPGSSPKSWIYRTSNLASGVSARFSGSGSGTSYSLTISSMEAEDAATYYCQQYHDYPPTFGGGTKLEIKR
# notes: chimeric, murine variable regions on human IgG1/kappa; also called M81CH1
# B9: M146 CHI (antibody, human IgG1, kappa, V domains shown)
# VH: EFQLQQSGPELVKPGASVKISCKASGYSFTDYNMNWVKQSNGKSLEWIGLINPKYGTTNYNQKFKGKATLTVDQSSSTAYMQLNSLTSEDSAVYYCAIDDYPAWFAYWGQGTLVTVSA
# VL: B8 VL with V29L, S58P, D92S, G99A, I105L
# notes: chimeric
# B10: PL-4 (bispecific antibody)
# chain 1: not shown
# chain 2: DIVLTQSPASLAVSPGQRATITCRASESVSIHGTHLMHWYQQKPGQPPKLLIYAASKLESGVPARFSGSGSGTDFTLTINPVEAEDTANYYCQQSFEDPLTFGQGTKLEIKGGGGSGIPPKIECLPIDISIDEGKVLTVASCFTGEPTPEVTWSTGGRKIHSQEQGRFHIENTDDSTTLTIKDVQKQDGGLYTLTLRNEFGSDSATVNIHIRSI
# chain 3: not shown
# chain 4: not shown
# B11: PL-9 (bispecific antibody)
# chain 1: not shown
# chain 2: B10 chain 2 with V136C, C142A
# chain 3: not shown
# chain 4: not shown
# B12: PL-14 (bispecific antibody)
# chain 1: not shown
# chain 2: B10 chain 2 with G112R, G113T, G114V, G115A, C142A
# chain 3: not shown
# chain 4: not shown
# B13: PL-12 (bispecific antibody)
# chain 1: not shown
# chain 2: B10 chain 2 with G112R, G113T, G114V, G115A, V136C, C142A
# chain 3: not shown
# chain 4: not shown
# B14: PL-11 (bispecific antibody)
# chain 1: not shown
# chain 2: B10 chain 2 with G112R, G113T, G114V, G115A, C142A
# chain 3: not shown
# chain 4: not shown
# Assays:
# [1] = biological target: T1, hGUCY2C ECD-His (human, UniProt P25092 24-430); test: SPR Biacore, antibody captured
# T1 construct: also called human GUCY2C protein
# Text: To test the affinity of the GUCY2C monoclonal antibodies of the present disclosure for GUCY2C, in this test example, the instruments Biacore 8K and Biacore T200 were used to detect the ability of the antibodies to bind to hGUCY2C-ECD-His (SEQ ID NO: 3). The specific method is as follows: The antibody was affinity-captured using a Protein A biosensor chip conjugated with an anti-human antibody, then a solution containing GUCY2C Protein flowed on the surface of the chip, and reaction signals were detected in real time with an instrument to obtain association and dissociation curves. After dissociation was completed for each cycle, the biosensor chip was washed with 10 mM glycine-hydrochloric acid (pH 1.5) for regeneration. Data fitting was performed using a 1:1 model.
# [2] = biological target: hCTLA4 (human, UniProt P16410 36-161); test: ELISA
# Chain of hCTLA4 (P16410 36-161 limits assumed): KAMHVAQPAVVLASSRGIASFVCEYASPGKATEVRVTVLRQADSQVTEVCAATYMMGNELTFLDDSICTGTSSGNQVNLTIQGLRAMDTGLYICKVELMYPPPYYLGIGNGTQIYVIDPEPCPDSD
# [3] = biological target: hPDL1 (human, UniProt Q9NZQ7 19-238); test: ELISA
# Chain of hPDL1 (Q9NZQ7 19-238 limits assumed): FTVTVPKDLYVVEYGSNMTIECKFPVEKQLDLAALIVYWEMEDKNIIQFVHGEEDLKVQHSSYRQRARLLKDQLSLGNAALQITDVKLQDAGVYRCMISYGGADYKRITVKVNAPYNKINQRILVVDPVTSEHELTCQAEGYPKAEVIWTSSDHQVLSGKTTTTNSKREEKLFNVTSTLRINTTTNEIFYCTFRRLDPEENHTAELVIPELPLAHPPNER
Binder,Kd [1],koff [1],kon [1],EC50 [2],EC50 [3]
B1,5.35 nM,0.000166 s⁻¹,31000 M⁻¹ s⁻¹,,
B2,6.61 nM,0.000149 s⁻¹,22600 M⁻¹ s⁻¹,,
B3,47.5 nM,0.00135 s⁻¹,28400 M⁻¹ s⁻¹,,
B4,26.7 nM,0.000719 s⁻¹,26900 M⁻¹ s⁻¹,,
B5,73.4 nM,0.00209 s⁻¹,28500 M⁻¹ s⁻¹,,
B6,6.55 nM,0.000156 s⁻¹,23700 M⁻¹ s⁻¹,,
B7,3.02 nM,0.000175 s⁻¹,58100 M⁻¹ s⁻¹,,
B8,0.27 nM,5.9e-05 s⁻¹,216000 M⁻¹ s⁻¹,,
B9,0.46 nM,9.22e-05 s⁻¹,203000 M⁻¹ s⁻¹,,
B10,,,,6.5 nM,0.7 nM
B11,,,,5.5 nM,0.6 nM
B12,,,,6 nM,1.3 nM
B13,,,,8 nM,0.5 nM
B14,,,,5.6 nM,0.6 nM

# — patent US20260028421A1 (JIANGSU HENGRUI PHARMACEUTICALS, published 2026)
